How the values were obtained:
Assay in all cases: FACS, 293T cells expressing CXCR4 variants
[1] = biological target: CXCR2/CXCR4 chimera 2444b (human) (UniProt P61073)
[2] = biological target: CXCR2/CXCR4 chimera 2442 (human) (UniProt P61073)
[3] = biological target: human CXCR4 (wild type) (human) (UniProt P61073)
ΔN31-CXCR4 (human) = ΔN31-CXCR4 (human) (UniProt P61073)
ΔN25-CXCR4 (human) = ΔN25-CXCR4 (human) (UniProt P61073)
[4] = biological target: CXCR2/CXCR4 chimera 4442 (human) (UniProt P61073)

binding to cells expressing the variant (+%) [1]: 70.1%
binding to cells expressing the variant (+%) [2]: 85.8%
binding to cells expressing the variant (+%) [3]: 100%
binding to cells expressing the variant (+%) (ΔN31-CXCR4 (human)): 55.4%
binding to cells expressing the variant (+%) (ΔN25-CXCR4 (human)): 69.2%
binding to cells expressing the variant (+%) [4]: 103%
Substance: murine monoclonal antibody 12G5
